According to US20200199241A1 (Chugai, published 2020):
Substitutions are numbered along the chain they refer to. In names and notes the source's numbering stands.

B1: IgG1-F483 (antibody)
heavy: QVQLQESGPGLVKPSETLSLTCAVSGHSISHDHAWSWVRQPPGEGLEWIGFISYSGITNYNPSLQGRVTISRDNSKNTLYLQMNSLRAEDTAVYYCARSLARTTAMDYWGEGTLVTVSSASTKGPSVFPLAPSSKSTSGGTAALGCLVKDYFPEPVTVSWNSGALTSGVHTFPAVLQSSGLYSLSSVVTVPSSSLGTQTYICNVNHKPSNTKVDKKVEPKSCDKTHTCPPCPAPELLGGPSVFLFPPKPKDTLMISRTVEVTCVVVDVSHEDPEVKFNWYVDGVEVHNAKTKPREEQYNSTYRVVSVLQVLHADWLNGKEYKCKVSNKALPAPIEKTISKAKGQPREPQVYTLPPSRDELTKNQVSLTCLVKGFYPSDIAVEWESNGQPENNYKTTPPVLDSDGSFFLYSKLTVDKSRWQQGNVFSCSVMHEALHYHYTQKSLSLSP
light: not shown
notes: EU numbering; copies: 2 + 2
B2: IgG1-F549 (antibody)
heavy: B1 heavy with T252S, A313Q, M430L
light: not shown
notes: EU numbering; copies: 2 + 2
B3: IgG1-F563 (antibody)
heavy: B1 heavy with M254Y, S256T, V259P, Q309T
light: not shown
notes: EU numbering; copies: 2 + 2
B4: IgG1-F562 (antibody)
heavy: B1 heavy with M254Y, S256T, V259P, A313Q
light: not shown
notes: EU numbering; copies: 2 + 2
B5: IgG1-F518 (antibody)
heavy: B1 heavy with V259T, N288E, Q309T, A313Q
light: not shown
notes: EU numbering; copies: 2 + 2
B6: IgG1-F560 (antibody)
heavy: B1 heavy with M254Y, S256T, V259P, Q309T, V310P, A313Q
light: not shown
notes: EU numbering; copies: 2 + 2
B7: IgG1-F561 (antibody)
heavy: B1 heavy with M254Y, S256T, V259P, Q309A, A313Q
light: not shown
notes: EU numbering; copies: 2 + 2
B8: IgG1-F507 (antibody)
heavy: B1 heavy with N288A, A313Q, M430L
light: not shown
notes: EU numbering; copies: 2 + 2
B9: IgG1-F493 (antibody)
heavy: B1 heavy with S241K, V259P, D272F, Q309P, A313Q, N327G, M430Y
light: not shown
notes: EU numbering; copies: 2 + 2
B10: IgG1-F499 (antibody)
heavy: B1 heavy with V259A, Q309A, A313Q, M430V
light: not shown
notes: EU numbering; copies: 2 + 2
B11: IgG1-F552 (antibody)
heavy: B1 heavy with T252Y, A313Q, M430L
light: not shown
notes: EU numbering; 'N428L' as printed, probably M428L; copies: 2 + 2
B12: IgG1-F510 (antibody)
heavy: B1 heavy with A313Q, N391A, M430L
light: not shown
notes: EU numbering; copies: 2 + 2
B13: IgG1-F541 (antibody)
heavy: B1 heavy with T252I, A313Q, M430L
light: not shown
notes: EU numbering; copies: 2 + 2
B14: IgG1-F517 (antibody)
heavy: B1 heavy with N288E, Q309T, A313Q
light: not shown
notes: EU numbering; copies: 2 + 2
B15: IgG1-F509 (antibody)
heavy: B1 heavy with A313Q, N386A, M430L
light: not shown
notes: EU numbering; copies: 2 + 2
B16: IgG1-F519 (antibody)
heavy: B1 heavy with N288E, A313Q
light: not shown
notes: EU numbering; copies: 2 + 2
B17: IgG1-F533 (antibody)
heavy: B1 heavy with V259A, N288E, A313Q, M430F
light: not shown
notes: EU numbering; copies: 2 + 2
B18: IgG1-F544 (antibody)
heavy: B1 heavy with T252M, A313Q, M430L
light: not shown
notes: EU numbering; copies: 2 + 2
B19: IgG1-F556 (antibody)
heavy: B1 heavy with M254Y, V259P, Y436N
light: not shown
notes: EU numbering; copies: 2 + 2
B20: IgG1-F565 (antibody)
heavy: B1 heavy with M254Y, S256T, V259P, Q309A
light: not shown
notes: EU numbering; copies: 2 + 2
B21: IgG1-F486 (antibody)
heavy: B1 heavy with L311R, A313H, M430L
light: not shown
notes: EU numbering; copies: 2 + 2
B22: IgG1-F523 (antibody)
heavy: B1 heavy with V307A, A313Q, M430Y
light: not shown
notes: EU numbering; copies: 2 + 2
B23: IgG1-F550 (antibody)
heavy: B1 heavy with T252V, A313Q, M430L
light: not shown
notes: EU numbering; copies: 2 + 2
B24: IgG1-F535 (antibody)
heavy: B1 heavy with T252A, A313Q, M430L
light: not shown
notes: EU numbering; copies: 2 + 2
B25: IgG1-F500 (antibody)
heavy: B1 heavy with V259S, A313Q, M430L
light: not shown
notes: EU numbering; copies: 2 + 2
B26: IgG1-F498 (antibody)
heavy: B1 heavy with V259A, Q309T, A313Q, M430V
light: not shown
notes: EU numbering; 'N428V' as printed, probably M428V; copies: 2 + 2
B27: IgG1-F553 (antibody)
heavy: B1 heavy with M254Y, V259P, Q309T
light: not shown
notes: EU numbering; copies: 2 + 2
B28: IgG1-F497 (antibody)
heavy: B1 heavy with V259T, Q309A, A313Q, M430V
light: not shown
notes: as for B26
B29: IgG1-F490 (antibody)
heavy: B1 heavy with S241K, Q309T, V310P, A313H, M430L
light: not shown
notes: EU numbering; copies: 2 + 2
B30: IgG1-F521 (antibody)
heavy: B1 heavy with N288E, A313Q, M430Y
light: not shown
notes: EU numbering; copies: 2 + 2
B31: IgG1-F564 (antibody)
heavy: B1 heavy with M254Y, S256T, V259P, Q309T, A313H
light: not shown
notes: EU numbering; copies: 2 + 2
B32: IgG1-F485 (antibody)
heavy: B1 heavy with N288E, Q309A, A313Q
light: not shown
notes: EU numbering; copies: 2 + 2
B33: IgG1-F508 (antibody)
heavy: B1 heavy with A313Q, N317A, M430L
light: not shown
notes: EU numbering; copies: 2 + 2
B34: IgG1-F538 (antibody)
heavy: B1 heavy with T252F, A313Q, M430L
light: not shown
notes: EU numbering; copies: 2 + 2
B35: IgG1-F534 (antibody)
heavy: B1 heavy with V259A, N288E, A313Q, M430Y
light: not shown
notes: EU numbering; copies: 2 + 2
B36: IgG1-F506 (antibody)
heavy: B1 heavy with N299A, A313Q, M430L
light: not shown
notes: EU numbering; copies: 2 + 2
B37: IgG1-F551 (antibody)
heavy: B1 heavy with T252W, A313Q, M430L
light: not shown
notes: EU numbering; copies: 2 + 2
B38: IgG1-F559 (antibody)
heavy: B1 heavy with M254Y, S256T, V259P, N288E, Q309T, A313Q
light: not shown
notes: EU numbering; copies: 2 + 2
B39: IgG1-F484 (antibody)
heavy: B1 heavy with V307A, A313Q
light: not shown
notes: EU numbering; copies: 2 + 2
B40: IgG1-F488 (antibody)
heavy: B1 heavy with Q309T, V310P, A313Q, N327G, M430L
light: not shown
notes: EU numbering; copies: 2 + 2
B41: IgG1-F566 (antibody)
heavy: B1 heavy with M254Y, S256T, V259P
light: not shown
notes: EU numbering; copies: 2 + 2
B42: IgG1-F526 (antibody)
heavy: B1 heavy with V259T, A313Q, M430Y
light: not shown
notes: EU numbering; copies: 2 + 2

target: T1, human FcRn (soluble human FcRn complexed with β2-microglobulin) (human, UniProt P61769 21-119, limits assumed); assay: SPR, pH 7.0;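 further: antibodies captured on a Protein L sensor chip with human FcRn injected as analyte, KD calculated from fitted association and dissociation rate constants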
T1 construct: also called hFcRn
T1 sequence (chain, as listed by the source limits assumed, chain 1 of 2): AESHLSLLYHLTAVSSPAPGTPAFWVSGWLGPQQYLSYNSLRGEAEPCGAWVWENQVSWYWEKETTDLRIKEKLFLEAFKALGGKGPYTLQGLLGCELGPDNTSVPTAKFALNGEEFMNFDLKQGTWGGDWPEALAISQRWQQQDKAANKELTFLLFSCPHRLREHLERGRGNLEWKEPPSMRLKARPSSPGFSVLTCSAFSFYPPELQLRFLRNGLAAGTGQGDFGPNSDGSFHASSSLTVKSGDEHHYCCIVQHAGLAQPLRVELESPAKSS
T1 sequence (P61769 21-119 limits assumed, chain 2 of 2): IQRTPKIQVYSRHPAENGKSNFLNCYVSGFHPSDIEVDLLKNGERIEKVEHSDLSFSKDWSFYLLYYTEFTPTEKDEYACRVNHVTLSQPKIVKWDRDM

Point of comparison: B33, Kd 110 nM. Against it:
- B1 — 1.9-fold lower, 57 nM
- B2 — 2-fold lower, 54 nM
- B3 — within 1.5-fold, 130 nM
- B4 — within 1.5-fold, 83 nM
- B5 — 3.8-fold higher, 420 nM
- B6 — 3.9-fold lower, 28 nM
- B7 — within 1.5-fold, 140 nM
- B8 — 2.2-fold lower, 51 nM
- B9 — 4.5-fold higher, 490 nM
- B10 — 4.7-fold higher, 520 nM
- B11 — the same, 110 nM
- B12 — 2.1-fold lower, 53 nM
- B13 — 1.8-fold lower, 60 nM
- B14 — 2.8-fold higher, 310 nM
- B15 — 1.9-fold lower, 58 nM
- B16 — 4.2-fold lower, 26 nM
- B17 — 9.2-fold lower, 12 nM
- B18 — 3.5-fold lower, 31 nM
- B19 — 14-fold higher, 1500 nM
- B20 — within 1.5-fold, 92 nM
- B21 — 3.1-fold higher, 340 nM
- B22 — 4.2-fold lower, 26 nM
- B23 — 1.9-fold lower, 59 nM
- B24 — 2.8-fold lower, 39 nM
- B25 — 2.6-fold lower, 43 nM
- B26 — 12-fold higher, 1300 nM
- B27 — 1.5-fold higher, 170 nM
- B28 — 28-fold higher, 3100 nM
- B29 — within 1.5-fold, 75 nM
- B30 — 10-fold lower, 11 nM
- B31 — 1.7-fold higher, 190 nM
- B32 — within 1.5-fold, 97 nM
- B34 — within 1.5-fold, 99 nM
- B35 — 9.2-fold lower, 12 nM
- B36 — 1.7-fold higher, 190 nM
- B37 — within 1.5-fold, 120 nM
- B38 — within 1.5-fold, 80 nM
- B39 — 1.8-fold lower, 62 nM
- B40 — 3.1-fold lower, 35 nM
- B41 — 1.8-fold lower, 61 nM
- B42 — 5.8-fold lower, 19 nM
